Assay results reported in patent US20210388087A1.
Where a chain is given by its changes, count along the chain named. Names may count otherwise.

B1: dBBDu183H G100hN / dBBDu072L (antibody, name in Kabat numbering, V domains shown)
VH: QVQLVESGGGLVQPGRSLRLSCAASGFTFSNAWMHWVRQAPGKGLEWVAQIKDKGNAYAAYYAPSVKGRFTISRDDSKNSIYLQMNSLKTEDTAVYYCHYVHYASASTVLPAFNVDAWGQGTTVTVSS
VL: DIVMTQSPLSLPVTPGEPASISCQASQELVHMNRNTYLHWYQQKPGQAPRLLIYKVSNRFPGVPDRFSGSGSGTDFTLKISRVEAEDVGVYYCAQGTSVPFTFGQGTKLEIK
B2: dBBDu183H S100aT / dBBDu072L (antibody, name in Kabat numbering, V domains shown)
VH: B1 VH with S107T, N114G
VL: B1 VL
B3: dBBDu183H V95S / dBBDu072L (antibody, name in Kabat numbering, V domains shown)
VH: B1 VH with V101S, N114G
VL: B1 VL
B4: dBBDu183H Y97D / dBBDu072L (antibody, name in Kabat numbering, V domains shown)
VH: B1 VH with Y103D, N114G
VL: B1 VL
B5: dBBDu183H V100iN / dBBDu072L (antibody, name in Kabat numbering, V domains shown)
VH: B1 VH with N114G, V115N
VL: B1 VL
B6: dBBDu183H H96Q / dBBDu072L (antibody, name in Kabat numbering, V domains shown)
VH: B1 VH with H102Q, N114G
VL: B1 VL
B7: dBBDu183H H93E / dBBDu072L (antibody, name in Kabat numbering, V domains shown)
VH: B1 VH with H99E, N114G
VL: B1 VL
B8: dBBDu183H A100fT / dBBDu072L (antibody, name in Kabat numbering, V domains shown)
VH: B1 VH with A112T, N114G
VL: B1 VL
B9: dBBDu183H L100dD / dBBDu072L (antibody, name in Kabat numbering, V domains shown)
VH: B1 VH with L110D, N114G
VL: B1 VL
B10: dBBDu183H A98D / dBBDu072L (antibody, name in Kabat numbering, V domains shown)
VH: B1 VH with A104D, N114G
VL: B1 VL
B11: dBBDu183H A100fQ / dBBDu072L (antibody, name in Kabat numbering, V domains shown)
VH: B1 VH with A112Q, N114G
VL: B1 VL
B12: dBBDu183H S99D / dBBDu072L (antibody, name in Kabat numbering, V domains shown)
VH: B1 VH with S105D, N114G
VL: B1 VL
B13: dBBDu183H S100aD / dBBDu072L (antibody, name in Kabat numbering, V domains shown)
VH: B1 VH with S107D, N114G
VL: B1 VL
B14: dBBDu183H A102Q / dBBDu072L (antibody, name in Kabat numbering, V domains shown)
VH: B1 VH with N114G, A117Q
VL: B1 VL
B15: dBBDu183H V100iD / dBBDu072L (antibody, name in Kabat numbering, V domains shown)
VH: B1 VH with N114G, V115D
VL: B1 VL
B16: dBBDu183H G100hT / dBBDu072L (antibody, name in Kabat numbering, V domains shown)
VH: B1 VH with N114T
VL: B1 VL
B17: dBBDu183H G100hD / dBBDu072L (antibody, name in Kabat numbering, V domains shown)
VH: B1 VH with N114D
VL: B1 VL
B18: dBBDu183H V95T / dBBDu072L (antibody, name in Kabat numbering, V domains shown)
VH: B1 VH with V101T, N114G
VL: B1 VL
B19: dBBDu183H H96D / dBBDu072L (antibody, name in Kabat numbering, V domains shown)
VH: B1 VH with H102D, N114G
VL: B1 VL
B20: dBBDu183H A100fD / dBBDu072L (antibody, name in Kabat numbering, V domains shown)
VH: B1 VH with A112D, N114G
VL: B1 VL
B21: dBBDu183H A102D / dBBDu072L (antibody, name in Kabat numbering, V domains shown)
VH: B1 VH with N114G, A117D
VL: B1 VL
B22: dBBDu183H V100iS / dBBDu072L (antibody, name in Kabat numbering, V domains shown)
VH: B1 VH with N114G, V115S
VL: B1 VL
B23: dBBDu183H H93Q / dBBDu072L (antibody, name in Kabat numbering, V domains shown)
VH: B1 VH with H99Q, N114G
VL: B1 VL
B24: dBBDu183H H96S / dBBDu072L (antibody, name in Kabat numbering, V domains shown)
VH: B1 VH with H102S, N114G
VL: B1 VL
B25: dBBDu183H Y97S / dBBDu072L (antibody, name in Kabat numbering, V domains shown)
VH: B1 VH with Y103S, N114G
VL: B1 VL
B26: dBBDu183H F100gD / dBBDu072L (antibody, name in Kabat numbering, V domains shown)
VH: B1 VH with F113D, N114G
VL: B1 VL
B27: dBBDu183H G100hS / dBBDu072L (antibody, name in Kabat numbering, V domains shown)
VH: B1 VH with N114S
VL: B1 VL
B28: dBBDu183H A102T / dBBDu072L (antibody, name in Kabat numbering, V domains shown)
VH: B1 VH with N114G, A117T
VL: B1 VL
B29: dBBDu183H A100D / dBBDu072L (antibody, name in Kabat numbering, V domains shown)
VH: B1 VH with A106D, N114G
VL: B1 VL
B30: dBBDu183H H93T / dBBDu072L (antibody, name in Kabat numbering, V domains shown)
VH: B1 VH with H99T, N114G
VL: B1 VL
B31: dBBDu183H G100hQ / dBBDu072L (antibody, name in Kabat numbering, V domains shown)
VH: B1 VH with N114Q
VL: B1 VL
B32: dBBDu183H A98T / dBBDu072L (antibody, name in Kabat numbering, V domains shown)
VH: B1 VH with A104T, N114G
VL: B1 VL
B33: dBBDu183H V100iQ / dBBDu072L (antibody, name in Kabat numbering, V domains shown)
VH: B1 VH with N114G, V115Q
VL: B1 VL
B34: dBBDu183H A100T / dBBDu072L (antibody, name in Kabat numbering, V domains shown)
VH: B1 VH with A106T, N114G
VL: B1 VL
B35: dBBDu183H S100aQ / dBBDu072L (antibody, name in Kabat numbering, V domains shown)
VH: B1 VH with S107Q, N114G
VL: B1 VL
B36: dBBDu183H H93S / dBBDu072L (antibody, name in Kabat numbering, V domains shown)
VH: B1 VH with H99S, N114G
VL: B1 VL
B37: dBBDu183H Y97T / dBBDu072L (antibody, name in Kabat numbering, V domains shown)
VH: B1 VH with Y103T, N114G
VL: B1 VL
B38: dBBDu183H V95Q / dBBDu072L (antibody, name in Kabat numbering, V domains shown)
VH: B1 VH with V101Q, N114G
VL: B1 VL
B39: dBBDu183H H93D / dBBDu072L (antibody, name in Kabat numbering, V domains shown)
VH: B1 VH with H99D, N114G
VL: B1 VL
B40: dBBDu183H T100bD / dBBDu072L (antibody, name in Kabat numbering, V domains shown)
VH: B1 VH with T108D, N114G
VL: B1 VL
B41: dBBDu183H L100dT / dBBDu072L (antibody, name in Kabat numbering, V domains shown)
VH: B1 VH with L110T, N114G
VL: B1 VL
B42: dBBDu183H Y97Q / dBBDu072L (antibody, name in Kabat numbering, V domains shown)
VH: B1 VH with Y103Q, N114G
VL: B1 VL
B43: dBBDu183H A102N / dBBDu072L (antibody, name in Kabat numbering, V domains shown)
VH: B1 VH with N114G, A117N
VL: B1 VL
B44: dBBDu183H A98Q / dBBDu072L (antibody, name in Kabat numbering, V domains shown)
VH: B1 VH with A104Q, N114G
VL: B1 VL
B45: dBBDu183H A100S / dBBDu072L (antibody, name in Kabat numbering, V domains shown)
VH: B1 VH with A106S, N114G
VL: B1 VL
B46: dBBDu183H V100cD / dBBDu072L (antibody, name in Kabat numbering, V domains shown)
VH: B1 VH with V109D, N114G
VL: B1 VL
B47: dBBDu183H V95D / dBBDu072L (antibody, name in Kabat numbering, V domains shown)
VH: B1 VH with V101D, N114G
VL: B1 VL

Molecular target: Human CD137 ECD (human)
Assay: SPR, vs parent H183/L072

Sequence of Human CD137 ECD (human) (chain, as listed by the source limits assumed): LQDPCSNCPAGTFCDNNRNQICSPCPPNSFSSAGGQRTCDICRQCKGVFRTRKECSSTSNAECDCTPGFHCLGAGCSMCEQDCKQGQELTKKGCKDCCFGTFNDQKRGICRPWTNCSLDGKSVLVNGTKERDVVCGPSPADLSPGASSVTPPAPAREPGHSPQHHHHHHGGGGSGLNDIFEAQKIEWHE

| Binder | fold change of affinity |
| --- | --- |
| B1 | 0 fold |
| B2 | 0 fold |
| B3 | 0 fold |
| B4 | 0 fold |
| B5 | 0 fold |
| B6 | 0 fold |
| B7 | 0 fold |
| B8 | 0 fold |
| B9 | 0 fold |
| B10 | 0 fold |
| B11 | 0 fold |
| B12 | 0 fold |
| B13 | 0 fold |
| B14 | 0 fold |
| B15 | 0 fold |
| B16 | 0 fold |
| B17 | 0 fold |
| B18 | 0 fold |
| B19 | 0 fold |
| B20 | 0 fold |
| B21 | 0 fold |
| B22 | 0 fold |
| B23 | 0 fold |
| B24 | 0 fold |

| Binder | fold change of affinity |
| --- | --- |
| B25 | 0 fold |
| B26 | 0 fold |
| B27 | 0 fold |
| B28 | 0 fold |
| B29 | 0 fold |
| B30 | 0 fold |
| B31 | 0 fold |
| B32 | 0 fold |
| B33 | 0 fold |
| B34 | 0 fold |
| B35 | 0 fold |
| B36 | 0 fold |
| B37 | 0 fold |
| B38 | 0 fold |
| B39 | 0 fold |
| B40 | 0 fold |
| B41 | 0 fold |
| B42 | 0 fold |
| B43 | 0 fold |
| B44 | 0 fold |
| B45 | 0 fold |
| B46 | 0 fold |
| B47 | 0 fold |
